Experimental data: US7037656B2, “Methods and compositions for identifying ligands for nuclear receptors” (priority 2000, dated 2006)

T1: full-length D. melanogaster ultraspiracle receptor (DmUSP) (Drosophila melanogaster)
T1 sequence (P20153 1-508, looked up): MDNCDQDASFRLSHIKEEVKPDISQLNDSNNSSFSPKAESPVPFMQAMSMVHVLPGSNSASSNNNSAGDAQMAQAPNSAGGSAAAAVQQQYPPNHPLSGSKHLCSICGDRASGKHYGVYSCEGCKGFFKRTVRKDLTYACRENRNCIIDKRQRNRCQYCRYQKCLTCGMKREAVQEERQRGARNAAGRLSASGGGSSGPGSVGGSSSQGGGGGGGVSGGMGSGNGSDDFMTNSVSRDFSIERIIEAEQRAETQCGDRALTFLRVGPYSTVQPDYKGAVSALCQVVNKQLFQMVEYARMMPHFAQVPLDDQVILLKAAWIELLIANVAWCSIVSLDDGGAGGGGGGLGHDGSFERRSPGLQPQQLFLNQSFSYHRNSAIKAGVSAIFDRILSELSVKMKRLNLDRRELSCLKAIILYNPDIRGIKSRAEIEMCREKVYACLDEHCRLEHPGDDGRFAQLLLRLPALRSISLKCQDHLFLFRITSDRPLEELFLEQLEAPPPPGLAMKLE

B1: full-length D. melanogaster EcR B-1 ecdysone receptor (receptor, Drosophila melanogaster, UniProt P34021 1-878, looked up)
chain: MKRRWSNNGGFMRLPEESSSEVTSSSNGLVLPSGVNMSPSSLDSHDYCDQDLWLCGNESGSFGGSNGHGLSQQQQSVITLAMHGCSSTLPAQTTIIPINGNANGNGGSTNGQYVPGATNLGALANGMLNGGFNGMQQQIQNGHGLINSTTPSTPTTPLHLQQNLGGAGGGGIGGMGILHHANGTPNGLIGVVGGGGGVGLGVGGGGVGGLGMQHTPRSDSVNSISSGRDDLSPSSSLNGYSANESCDAKKSKKGPAPRVQEELCLVCGDRASGYHYNALTCEGCKGFFRRSVTKSAVYCCKFGRACEMDMYMRRKCQECRLKKCLAVGMRPECVVPENQCAMKRREKKAQKEKDKMTTSPSSQHGGNGSLASGGGQDFVKKEILDLMTCEPPQHATIPLLPDEILAKCQARNIPSLTYNQLAVIYKLIWYQDGYEQPSEEDLRRIMSQPDENESQTDVSFRHITEITILTVQLIVEFAKGLPAFTKIPQEDQITLLKACSSEVMMLRMARRYDHSSDSIFFANNRSYTRDSYKMAGMADNIEDLLHFCRQMFSMKVDNVEYALLTAIVIFSDRPGLEKAQLVEAIQSYYIDTLRIYILNRHCGDSMSLVFYAKLLSILTELRTLGNQNAEMCFSLKLKNRKLPKFLEEIWDVHAIPPSVQSHLQITQEENERLERAERMRASVGGAITAGIDCDSASTSAAAAAAQHQPQPQPQPQPSSLTQNDSQHQTQPQLQPQLPPQLQGQLQPQLQPQLQTQLQPQIQPQPQLLPVSAPVPASVTAPGSLSAVSTSSEYMGGSAAIGPITPATTSSITAAVTASSTTSAVPMGNGVGVGVGVGGNVSMYANAQTAMALMGVALHSHQEQLIGGVAVKSEHSTTA

What was measured:
Assay in all cases: cell-based or functional assay
[1] = molecular target: full-length mosquito A. aegypti ultraspiracle receptor, a-form (AaUSPa) (Aedes aegypti)
[2] = molecular target: mosquito A. aegypti ultraspiracle receptor with deletion of the A/B transactivation domain (Aa ΔAB USP) (Aedes aegypti)
[3] = molecular target: full-length mosquito A. aegypti ultraspiracle receptor, b-form (AaUSPb) (Aedes aegypti)
[4] = molecular target: human RXR α (retinoid X receptor α) (human) (UniProt P19793)
Chain of human RXR α (retinoid X receptor α) (human) (P19793 whole entry): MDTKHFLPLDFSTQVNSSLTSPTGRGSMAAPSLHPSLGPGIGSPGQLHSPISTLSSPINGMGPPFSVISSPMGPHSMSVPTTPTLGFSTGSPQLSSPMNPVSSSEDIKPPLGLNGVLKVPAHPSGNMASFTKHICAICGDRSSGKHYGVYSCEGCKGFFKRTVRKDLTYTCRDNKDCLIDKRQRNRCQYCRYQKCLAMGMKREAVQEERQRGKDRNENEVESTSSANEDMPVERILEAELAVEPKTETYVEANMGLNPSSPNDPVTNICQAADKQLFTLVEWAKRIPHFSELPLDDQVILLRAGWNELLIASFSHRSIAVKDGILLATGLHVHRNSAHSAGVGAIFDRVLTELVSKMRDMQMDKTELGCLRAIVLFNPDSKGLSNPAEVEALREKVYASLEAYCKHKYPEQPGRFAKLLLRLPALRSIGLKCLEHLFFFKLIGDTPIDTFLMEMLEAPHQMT

[5] = molecular target: mouse RXR β (retinoid X receptor β) (mouse) (UniProt P28704)
Chain of mouse RXR β (retinoid X receptor β) (mouse) (P28704 111-520 limits assumed): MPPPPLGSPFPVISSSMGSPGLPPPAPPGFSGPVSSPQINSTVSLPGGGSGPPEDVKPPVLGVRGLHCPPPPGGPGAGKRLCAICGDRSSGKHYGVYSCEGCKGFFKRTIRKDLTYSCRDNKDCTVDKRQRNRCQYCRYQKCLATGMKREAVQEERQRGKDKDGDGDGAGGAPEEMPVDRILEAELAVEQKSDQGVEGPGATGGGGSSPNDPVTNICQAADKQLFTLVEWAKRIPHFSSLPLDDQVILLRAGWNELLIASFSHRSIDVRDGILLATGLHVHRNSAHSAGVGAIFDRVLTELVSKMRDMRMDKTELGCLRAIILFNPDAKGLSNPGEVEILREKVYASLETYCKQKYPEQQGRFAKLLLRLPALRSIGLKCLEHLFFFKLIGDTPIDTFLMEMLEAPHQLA

[6] = molecular target: spruce budworm C. fumiferana ultraspiracle receptor with deletion of the A/B transactivation domain (Cf ΔAB USP) (Choristoneura fumiferana)
[7] = molecular target: mouse RXR γ (retinoid X receptor γ) (mouse) (UniProt P28705)
Chain of mouse RXR γ (retinoid X receptor γ) (mouse) (P28705 whole entry, the tested form may be a part): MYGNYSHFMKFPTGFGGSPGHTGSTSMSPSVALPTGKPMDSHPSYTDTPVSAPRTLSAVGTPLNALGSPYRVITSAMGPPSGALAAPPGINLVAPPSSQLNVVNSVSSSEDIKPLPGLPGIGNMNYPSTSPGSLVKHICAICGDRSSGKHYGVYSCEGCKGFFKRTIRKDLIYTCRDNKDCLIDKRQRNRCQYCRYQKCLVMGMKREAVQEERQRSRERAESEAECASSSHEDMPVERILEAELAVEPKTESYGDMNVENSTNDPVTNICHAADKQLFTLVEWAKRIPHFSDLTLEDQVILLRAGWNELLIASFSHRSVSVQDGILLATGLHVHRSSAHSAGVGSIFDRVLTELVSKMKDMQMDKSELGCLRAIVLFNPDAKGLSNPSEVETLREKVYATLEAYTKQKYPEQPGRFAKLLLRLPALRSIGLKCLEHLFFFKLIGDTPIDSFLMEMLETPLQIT

[8] = molecular target: D. melanogaster ultraspiracle receptor with deletion of the AB transactivation domain (Dm ΔAB USP) (Drosophila melanogaster) (UniProt P20153)
[9] = molecular target: full-length spruce budworm C. fumiferana ultraspiracle receptor (CfUSP) (Choristoneura fumiferana)
[10] = molecular target: T1, full-length D. melanogaster ultraspiracle receptor (DmUSP) (Drosophila melanogaster)

Molecule	β-galactosidase activity (yeast 6x EcRE-lacZ reporter), DMSO, with GRIP1 [1]	β-galactosidase activity (yeast 6x EcRE-lacZ reporter), DMSO, without GRIP1 [1]	β-galactosidase activity (yeast 6x EcRE-lacZ reporter), RH 5992 10 µM, with GRIP1 [1]	β-galactosidase activity (yeast 6x EcRE-lacZ reporter), RH 5992 10 µM, without GRIP1 [1]	β-galactosidase activity (yeast 6x EcRE-lacZ reporter), DMSO, with GRIP1 [3]	β-galactosidase activity (yeast 6x EcRE-lacZ reporter), DMSO, without GRIP1 [3]	β-galactosidase activity (yeast 6x EcRE-lacZ reporter), RH 5992 10 µM, with GRIP1 [3]	β-galactosidase activity (yeast 6x EcRE-lacZ reporter), RH 5992 10 µM, without GRIP1 [3]	β-galactosidase activity (yeast 6x EcRE-lacZ reporter), DMSO, with GRIP1 [4]	β-galactosidase activity (yeast 6x EcRE-lacZ reporter), RH 5992 10 µM, with GRIP1 [4]	β-galactosidase activity (yeast 6x EcRE-lacZ reporter), DMSO, with GRIP1 [5]	β-galactosidase activity (yeast 6x EcRE-lacZ reporter), RH 5992 10 µM, with GRIP1 [5]	β-galactosidase activity (yeast 6x EcRE-lacZ reporter), DMSO, with GRIP1 [6]	β-galactosidase activity (yeast 6x EcRE-lacZ reporter), RH 5992 10 µM, with GRIP1 [6]	β-galactosidase activity (yeast 6x EcRE-lacZ reporter), DMSO, with GRIP1 [7]	β-galactosidase activity (yeast 6x EcRE-lacZ reporter), RH 5992 10 µM, with GRIP1 [7]	β-galactosidase activity (yeast 6x EcRE-lacZ reporter), DMSO, without GRIP1 [10]	β-galactosidase activity (yeast 6x EcRE-lacZ reporter), RH 5992 10 µM, without GRIP1 [10]	β-galactosidase activity (yeast 6x EcRE-lacZ reporter), DMSO, without GRIP1 [9]	β-galactosidase activity (yeast 6x EcRE-lacZ reporter), RH 5992 10 µM, without GRIP1 [9]	also measured
mosquito A. aegypti ecdysone receptor with deletion of the A/B transactivation domain (Aa ΔAB EcR) (from UniProt P49880 285-776)	0.272	0.194	2.03	0.209	0.24	0.177	2.07	0.184	0.544	2.03	0.231	1.98	0.25	3	0.496	2.67	–	–	–	–	β-galactosidase activity (yeast 6x EcRE-lacZ reporter), DMSO, with GRIP1 [2]: 0.194; β-galactosidase activity (yeast 6x EcRE-lacZ reporter), DMSO, without GRIP1 [2]: 0.187; β-galactosidase activity (yeast 6x EcRE-lacZ reporter), RH 5992 10 µM, with GRIP1 [2]: 1.37; β-galactosidase activity (yeast 6x EcRE-lacZ reporter), RH 5992 10 µM, without GRIP1 [2]: 0.196
N-terminal truncated D. melanogaster EcR B-1 ecdysone receptor (Dm ΔN EcR) (from UniProt P34021 221-878)	0.243	–	1.86	–	0.251	–	2.07	–	–	–	–	–	0.235	0.59	0.364	1.28	0.152	0.182	–	–	β-galactosidase activity (yeast 6x EcRE-lacZ reporter), DMSO, with GRIP1 [8]: 0.34; β-galactosidase activity (yeast 6x EcRE-lacZ reporter), RH 5992 10 µM, with GRIP1 [8]: 2.32; β-galactosidase activity (yeast 6x EcRE-lacZ reporter), DMSO, with GRIP1 [9]: 1.15; β-galactosidase activity (yeast 6x EcRE-lacZ reporter), RH 5992 10 µM, with GRIP1 [9]: 1.41; β-galactosidase activity (yeast 6x EcRE-lacZ reporter), DMSO, with GRIP1 [10]: 0.424; β-galactosidase activity (yeast 6x EcRE-lacZ reporter), RH 5992 10 µM, with GRIP1 [10]: 2.54
full-length spruce budworm C. fumiferana ecdysone receptor (CfEcR)	–	–	–	–	–	–	–	–	–	–	–	–	0.223	0.492	–	–	–	–	2.73	3	β-galactosidase activity (yeast 6x EcRE-lacZ reporter), DMSO, without GRIP1 [6]: 0.205; β-galactosidase activity (yeast 6x EcRE-lacZ reporter), RH 5992 10 µM, without GRIP1 [6]: 0.241
spruce budworm C. fumiferana ecdysone receptor with deletion of the AB transactivation domain (Cf ΔAB EcR)	–	–	–	–	–	–	–	–	0.27	2.06	0.205	0.456	0.2	2.5	0.2	1.03	–	–	2.68	3	β-galactosidase activity (yeast 6x EcRE-lacZ reporter), DMSO, without GRIP1 [6]: 0.209; β-galactosidase activity (yeast 6x EcRE-lacZ reporter), RH 5992 10 µM, with GRIP1 (Table 4 prints another value than Table 3 for this combination) [6]: 3; β-galactosidase activity (yeast 6x EcRE-lacZ reporter), RH 5992 10 µM, without GRIP1 [6]: 0.234
full-length mosquito A. aegypti ecdysone receptor (AaEcR) (from UniProt P49880 1-776)	–	2.3	–	2.45	–	3	–	2.7	–	–	–	–	–	–	–	–	–	–	–	–	–
B1	–	–	–	–	–	–	–	–	–	–	–	–	–	–	–	–	2.09	1.95	–	–	–
